Three molecules from patent publication US20140087995A1 (published 2014) can be followed below.

Assay [1] addresses T1, rat calcitonin receptor (rat, UniProt P32214 25-516).
T1 construct: whole, on cells; Membranes prepared from transiently transfected BHK tk'ts 13 cells (Assay VIII); also called rCTR; rCT
T1 sequence (looked up): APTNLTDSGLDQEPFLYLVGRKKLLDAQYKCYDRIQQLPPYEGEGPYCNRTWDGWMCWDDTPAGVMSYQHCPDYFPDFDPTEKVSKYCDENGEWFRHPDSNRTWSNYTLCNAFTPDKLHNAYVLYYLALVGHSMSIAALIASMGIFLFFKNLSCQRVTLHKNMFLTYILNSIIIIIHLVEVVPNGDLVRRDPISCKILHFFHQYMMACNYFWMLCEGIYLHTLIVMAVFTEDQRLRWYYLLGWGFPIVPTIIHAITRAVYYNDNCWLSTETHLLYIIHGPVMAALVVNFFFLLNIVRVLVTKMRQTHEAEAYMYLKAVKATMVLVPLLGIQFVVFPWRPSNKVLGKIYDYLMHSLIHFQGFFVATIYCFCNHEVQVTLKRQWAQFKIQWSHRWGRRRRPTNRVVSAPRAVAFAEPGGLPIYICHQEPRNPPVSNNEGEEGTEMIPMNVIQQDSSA
The assay can be described thus: ratio of binding IC50s: rat calcitonin receptor / rat amylin receptor (reference).

Assay [2] concerns the target T2, human calcitonin receptor (human, UniProt P30988 25-474).
T2 construct: whole, on cells; Membranes prepared from a stably transfected BHK cell line (Assay VII); also called hCTR; hCT
T2 sequence (looked up): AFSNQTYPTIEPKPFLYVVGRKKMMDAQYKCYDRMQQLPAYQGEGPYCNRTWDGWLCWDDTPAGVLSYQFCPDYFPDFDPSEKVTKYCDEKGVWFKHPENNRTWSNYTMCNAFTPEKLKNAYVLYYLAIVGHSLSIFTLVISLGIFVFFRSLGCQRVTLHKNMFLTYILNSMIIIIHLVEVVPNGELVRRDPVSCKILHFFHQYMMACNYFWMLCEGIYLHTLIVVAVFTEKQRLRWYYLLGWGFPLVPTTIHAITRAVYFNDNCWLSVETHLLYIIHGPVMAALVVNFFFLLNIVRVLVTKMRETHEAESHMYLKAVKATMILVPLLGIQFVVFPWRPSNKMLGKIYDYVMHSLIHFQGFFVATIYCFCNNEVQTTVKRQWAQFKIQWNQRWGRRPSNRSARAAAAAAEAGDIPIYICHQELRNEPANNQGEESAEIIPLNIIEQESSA
Kind of assay: ratio of binding IC50s: human calcitonin receptor / human amylin receptor (reference). The method in brief:
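IC₅₀ values were derived by one-site competition analysis of SPA counts. Cell membranes (35 ng/μL) with SPA beads were incubated with test compounds for 120 min at 25° C in Hepes buffer, pH 7.4, containing CaCl2, MgCl₂, OA and Tween20.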

The target of assay [3] is T1, rat calcitonin receptor. The assay can be described thus: SPA competition vs 125I-calcitonin, membranes of BHK cells with rat calcitonin receptor (Assay VIII).
Assay [4] addresses T3, rat amylin receptor (rat calcitonin receptor + rat RAMP 3) (rat, UniProt P32214 25-516; Q9JJ73 23-147).
T3 construct: whole, on cells; Membranes prepared from transiently transfected BHK tk'ts 13 cells (Assay VI); also called rAmylin-R; rAmylin
T3 sequence (looked up) 1: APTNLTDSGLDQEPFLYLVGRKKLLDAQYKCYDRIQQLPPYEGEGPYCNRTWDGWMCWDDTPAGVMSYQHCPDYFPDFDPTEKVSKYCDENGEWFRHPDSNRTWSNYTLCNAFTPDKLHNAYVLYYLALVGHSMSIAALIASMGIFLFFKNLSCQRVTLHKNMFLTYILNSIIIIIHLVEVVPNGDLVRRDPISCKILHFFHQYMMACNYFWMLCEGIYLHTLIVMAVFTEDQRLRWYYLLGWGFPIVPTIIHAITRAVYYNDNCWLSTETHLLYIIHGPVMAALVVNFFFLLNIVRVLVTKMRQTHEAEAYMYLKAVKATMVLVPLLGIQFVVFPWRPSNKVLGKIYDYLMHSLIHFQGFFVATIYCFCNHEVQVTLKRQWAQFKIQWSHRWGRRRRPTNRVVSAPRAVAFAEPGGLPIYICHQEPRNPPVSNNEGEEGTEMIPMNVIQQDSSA
T3 sequence (looked up) 2: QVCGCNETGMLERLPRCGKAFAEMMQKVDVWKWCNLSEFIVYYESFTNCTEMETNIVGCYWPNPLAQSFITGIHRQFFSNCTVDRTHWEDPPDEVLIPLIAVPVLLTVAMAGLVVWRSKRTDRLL
The assay can be described thus: SPA competition vs 125I-rat amylin, membranes of BHK cells with rat calcitonin receptor + rat RAMP3 (Assay VI).

Numbered stars: 1 amine (or outer) side, 2 acyl side, 3 side chain; on linkers, the order of the positions; unused ones are H or OH. Bridge positions count the residues as written; N and C are the ends. Side chains are listed from the residue outwards. Ends that are not written are not given here. * marks the point of attachment. C20 diacid = O=C(O)CCCCCCCCCCCCCCCCCCC(=O)*; γGlu = O=C(O)[C@H](CCC(=O)[*:2])N[*:1]

B1: N^ε1-[(4S)-4-carboxy-4-[[(4S)-4-carboxy-4-(19-carboxynonadecanoylamino)butanoyl]amino]butanoyl]-[His14,Arg17,Pro21,Pro27]-h-amylin (peptide)
peptide: K([γGlu-γGlu-C20 diacid])CNTATCATQRLAHFLRHSSPNFGAIPSSTNVGSNTY-NH2
modifications: disulfide 2-7; N-terminus assumed
SMILES: CC[C@H](C)[C@H](NC(=O)[C@H](C)NC(=O)CNC(=O)[C@H](Cc1ccccc1)NC(=O)[C@H](CC(N)=O)NC(=O)[C@@H]1CCCN1C(=O)[C@H](CO)NC(=O)[C@H](CO)NC(=O)[C@H](Cc1c[nH]cn1)NC(=O)[C@H](CCCNC(=N)N)NC(=O)[C@H](CC(C)C)NC(=O)[C@H](Cc1ccccc1)NC(=O)[C@H](Cc1c[nH]cn1)NC(=O)[C@H](C)NC(=O)[C@H](CC(C)C)NC(=O)[C@H](CCCNC(=N)N)NC(=O)[C@H](CCC(N)=O)NC(=O)[C@@H](NC(=O)[C@H](C)NC(=O)[C@@H]1CSSC[C@H](NC(=O)[C@@H](N)CCCCNC(=O)CC[C@H](NC(=O)CC[C@H](NC(=O)CCCCCCCCCCCCCCCCCCC(=O)O)C(=O)O)C(=O)O)C(=O)N[C@@H](CC(N)=O)C(=O)N[C@@H]([C@@H](C)O)C(=O)N[C@@H](C)C(=O)N[C@@H]([C@@H](C)O)C(=O)N1)[C@@H](C)O)C(=O)N1CCC[C@H]1C(=O)N[C@@H](CO)C(=O)N[C@@H](CO)C(=O)N[C@H](C(=O)N[C@@H](CC(N)=O)C(=O)N[C@H](C(=O)NCC(=O)N[C@@H](CO)C(=O)N[C@@H](CC(N)=O)C(=O)N[C@H](C(=O)N[C@@H](Cc1ccc(O)cc1)C(N)=O)[C@@H](C)O)C(C)C)[C@@H](C)O
notes: Analogue of human amylin; also called compound 92
Take B1: the “Ratio rCT/rAmylin binding” value with rat calcitonin receptor [1] was determined as 156. Further, the “Ratio hCT/hAmylin binding” value in assay [2] is 145. Also, the values for the IC50 (with rat calcitonin receptor [3]; in assay [4]) were 104 nM and 0.668 nM, respectively.

B2: N^ε1-[(4S)-4-carboxy-4-(19-carboxynonadecanoylamino)butanoyl]-[His14,Arg17,Pro21,Pro27]-h-amylin (peptide)
peptide: K([γGlu-C20 diacid])CNTATCATQRLAHFLRHSSPNFGAIPSSTNVGSNTY-NH2
modifications: disulfide 2-7; N-terminus assumed
SMILES: CC[C@H](C)[C@H](NC(=O)[C@H](C)NC(=O)CNC(=O)[C@H](Cc1ccccc1)NC(=O)[C@H](CC(N)=O)NC(=O)[C@@H]1CCCN1C(=O)[C@H](CO)NC(=O)[C@H](CO)NC(=O)[C@H](Cc1c[nH]cn1)NC(=O)[C@H](CCCNC(=N)N)NC(=O)[C@H](CC(C)C)NC(=O)[C@H](Cc1ccccc1)NC(=O)[C@H](Cc1c[nH]cn1)NC(=O)[C@H](C)NC(=O)[C@H](CC(C)C)NC(=O)[C@H](CCCNC(=N)N)NC(=O)[C@H](CCC(N)=O)NC(=O)[C@@H](NC(=O)[C@H](C)NC(=O)[C@@H]1CSSC[C@H](NC(=O)[C@@H](N)CCCCNC(=O)CC[C@H](NC(=O)CCCCCCCCCCCCCCCCCCC(=O)O)C(=O)O)C(=O)N[C@@H](CC(N)=O)C(=O)N[C@@H]([C@@H](C)O)C(=O)N[C@@H](C)C(=O)N[C@@H]([C@@H](C)O)C(=O)N1)[C@@H](C)O)C(=O)N1CCC[C@H]1C(=O)N[C@@H](CO)C(=O)N[C@@H](CO)C(=O)N[C@H](C(=O)N[C@@H](CC(N)=O)C(=O)N[C@H](C(=O)NCC(=O)N[C@@H](CO)C(=O)N[C@@H](CC(N)=O)C(=O)N[C@H](C(=O)N[C@@H](Cc1ccc(O)cc1)C(N)=O)[C@@H](C)O)C(C)C)[C@@H](C)O
notes: Analogue of human amylin; also called compound 70
In the case of B2, in the assay with rat calcitonin receptor [1], the “Ratio rCT/rAmylin binding” value is 96.5. For the same molecule, the “Ratio hCT/hAmylin binding” value in assay [2] was found to be 60.8. Also, the IC50 (as a rule, the concentration at which inhibition is half-maximal) in the assay with rat calcitonin receptor [3] amounted to 34.2 nM; in assay [4], 0.355 nM.

B3: N^ε1-[(4S)-4-carboxy-4-[[(4S)-4-carboxy-4-(19-carboxynonadecanoylamino)butanoyl]amino]butanoyl]-[Glu14,Arg17,Pro21,Pro27,His34]-h-amylin (peptide)
peptide: K([γGlu-γGlu-C20 diacid])CNTATCATQRLAEFLRHSSPNFGAIPSSTNVGHNTY-NH2
modifications: disulfide 2-7; N-terminus assumed
SMILES: CC[C@H](C)[C@H](NC(=O)[C@H](C)NC(=O)CNC(=O)[C@H](Cc1ccccc1)NC(=O)[C@H](CC(N)=O)NC(=O)[C@@H]1CCCN1C(=O)[C@H](CO)NC(=O)[C@H](CO)NC(=O)[C@H](Cc1c[nH]cn1)NC(=O)[C@H](CCCNC(=N)N)NC(=O)[C@H](CC(C)C)NC(=O)[C@H](Cc1ccccc1)NC(=O)[C@H](CCC(=O)O)NC(=O)[C@H](C)NC(=O)[C@H](CC(C)C)NC(=O)[C@H](CCCNC(=N)N)NC(=O)[C@H](CCC(N)=O)NC(=O)[C@@H](NC(=O)[C@H](C)NC(=O)[C@@H]1CSSC[C@H](NC(=O)[C@@H](N)CCCCNC(=O)CC[C@H](NC(=O)CC[C@H](NC(=O)CCCCCCCCCCCCCCCCCCC(=O)O)C(=O)O)C(=O)O)C(=O)N[C@@H](CC(N)=O)C(=O)N[C@@H]([C@@H](C)O)C(=O)N[C@@H](C)C(=O)N[C@@H]([C@@H](C)O)C(=O)N1)[C@@H](C)O)C(=O)N1CCC[C@H]1C(=O)N[C@@H](CO)C(=O)N[C@@H](CO)C(=O)N[C@H](C(=O)N[C@@H](CC(N)=O)C(=O)N[C@H](C(=O)NCC(=O)N[C@@H](Cc1c[nH]cn1)C(=O)N[C@@H](CC(N)=O)C(=O)N[C@H](C(=O)N[C@@H](Cc1ccc(O)cc1)C(N)=O)[C@@H](C)O)C(C)C)[C@@H](C)O
notes: Analogue of human amylin; also called compound 87
B3: the “Ratio rCT/rAmylin binding” value in the assay with rat calcitonin receptor [1] amounted to 45.6. Moreover, the “Ratio hCT/hAmylin binding” value in assay [2] was 35.6. Moreover, the IC50 is 94.5 nM in the assay with rat calcitonin receptor [3] and 2.07 nM in assay [4].
